The target of assay [1] is T1, CD39 mutant 3 (R118A, S119A, Q120K, Q122H, E123A) (human, UniProt P49961 1-510).
T1 construct: Transfected in HEK293T cells
T1 chain: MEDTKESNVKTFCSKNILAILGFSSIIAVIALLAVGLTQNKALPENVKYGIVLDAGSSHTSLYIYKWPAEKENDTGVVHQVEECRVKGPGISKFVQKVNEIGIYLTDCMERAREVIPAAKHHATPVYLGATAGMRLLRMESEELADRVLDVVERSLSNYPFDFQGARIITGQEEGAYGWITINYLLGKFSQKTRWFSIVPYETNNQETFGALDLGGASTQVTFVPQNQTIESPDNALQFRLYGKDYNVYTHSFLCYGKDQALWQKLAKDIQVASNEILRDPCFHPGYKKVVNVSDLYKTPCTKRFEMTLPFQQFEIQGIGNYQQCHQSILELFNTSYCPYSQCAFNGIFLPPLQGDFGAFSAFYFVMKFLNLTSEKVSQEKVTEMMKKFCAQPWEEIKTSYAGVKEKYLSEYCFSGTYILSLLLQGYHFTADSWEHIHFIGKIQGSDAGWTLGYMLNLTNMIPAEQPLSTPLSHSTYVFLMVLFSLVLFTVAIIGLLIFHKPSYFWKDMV
The assay can be described thus: flow cytometry, HEK293T cells transfected with mutant 3. A general note: Flow cytometry measures light scatter and fluorescence of single cells or particles in a stream.

Assay [2] deals with T2, CD39 mutant 2A (V81S, E82A, R111A, V115A) (human, UniProt P49961 1-510).
T2 construct: Transfected in HEK293T cells
T2 chain: T1 chain with V81S, E82A, R111A, V115A, A118R, A119S, K120Q, H122Q, A123E
As to the kind of experiment: flow cytometry, HEK293T cells transfected with mutant 2A.

For assay [3], the target named is T3, Recombinant human CD39-L2 (NTPDase6, ENTPD6) (human, UniProt O75354 61-484, limits assumed).
T3 construct: Coated in ELISA
T3 sequence: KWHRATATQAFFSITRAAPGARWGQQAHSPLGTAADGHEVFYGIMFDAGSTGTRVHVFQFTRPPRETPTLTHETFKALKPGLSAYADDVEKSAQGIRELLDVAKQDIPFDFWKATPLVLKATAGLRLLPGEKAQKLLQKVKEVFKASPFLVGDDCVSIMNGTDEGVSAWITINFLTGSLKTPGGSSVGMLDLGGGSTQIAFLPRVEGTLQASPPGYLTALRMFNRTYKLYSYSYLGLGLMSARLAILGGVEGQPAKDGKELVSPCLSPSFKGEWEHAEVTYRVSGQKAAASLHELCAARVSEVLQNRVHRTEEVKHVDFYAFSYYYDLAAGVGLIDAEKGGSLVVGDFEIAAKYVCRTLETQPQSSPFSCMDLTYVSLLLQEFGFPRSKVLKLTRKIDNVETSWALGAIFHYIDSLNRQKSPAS
As to the kind of experiment: ELISA on coated RechuCD39-L2, OD 450 nm [top panel CHS2-I-391]. How it is done: Wells were washed in TBS Tween 20, and further saturated 2H at RT in TBS Blocking buffer. Dose range concentration of primary antibody was incubated in TBS blocking buffer for 2h at RT. Wells were washed in TBS Tween 20. […] Optical density was measured on Enspire at OD=450.
(An ELISA detects its analyte on a solid surface through an enzyme-linked reagent.)

Assay [4] deals with T4, Cynomolgus CD39 expressed on HEK cells (cynomolgus, UniProt A0A7N9DGH8 1-510).
T4 construct: whole, on cells; also called cynoCD39; cynomolgus vascular CD39
T4 sequence: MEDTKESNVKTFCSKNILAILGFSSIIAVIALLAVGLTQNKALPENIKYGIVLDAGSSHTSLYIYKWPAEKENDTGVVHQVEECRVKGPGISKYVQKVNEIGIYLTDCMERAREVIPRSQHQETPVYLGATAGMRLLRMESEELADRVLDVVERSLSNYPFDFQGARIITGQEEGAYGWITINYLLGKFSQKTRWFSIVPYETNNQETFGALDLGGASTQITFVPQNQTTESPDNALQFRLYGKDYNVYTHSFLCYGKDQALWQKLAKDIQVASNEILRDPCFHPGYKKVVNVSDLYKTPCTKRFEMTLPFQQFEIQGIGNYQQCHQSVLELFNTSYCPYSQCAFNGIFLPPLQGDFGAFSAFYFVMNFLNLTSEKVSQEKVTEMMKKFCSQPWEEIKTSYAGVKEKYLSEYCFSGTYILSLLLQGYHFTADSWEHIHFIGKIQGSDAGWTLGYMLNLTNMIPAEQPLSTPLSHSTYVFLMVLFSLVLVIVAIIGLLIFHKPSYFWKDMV
As to the kind of experiment: flow cytometry on HEK cells expressing cynomolgus CD39, antibody 99 nM to 0.045 nM (FIG. 1 legend says ELISA). As to the method: Briefly, 1×10⁵ HEK-huCD39or cynoCD39 cells were incubated with various concentration of unlabeled anti-CD39 antibody or isotype control (IC) from 99 nM to 0.045 nM, for 30 minutes at 4° C. After washes, cells were incubated with Goat anti-mouse H+L labeled secondary antibody for 30 min at 4° C.

One molecule from patent US20190153113A1, “CD39 VASCULAR ISOFORM TARGETING AGENTS” (INNATE PHARMA, priority 2015, published 2019) can be followed below.

Changes are numbered by the printed parent chain. Names may count otherwise.

Usually EC50 stands for the concentration needed to bring the measured effect to its halfway point. Low readings indicate greater potency, high ones weaker potency.

B1: Antibody I-391, Fc silent recombinant chimeric human IgG1 with heavy chain N297Q mutation (antibody, V domains shown)
VH: QIQLVQSGPELKKPGETVKISCKASGYTFRNYGMNWVKQAPGKGLKWMGWINTYTGEPTYADDFKGRFAFSLATSASTAYLQISNLKNEDTATYFCARKAYYGSNYYFDYWGQGTTLTVSS
VL: DIVMTQSHKFMSTSVGDRVSITCKASQDVSTAVAWYQQKPGQSPKLLIYSASYRYTGVPDRFTGSGSGTDFTFTISTVQAEDLAVYYCQQHYTTPPYTFGGGTKLEIKR
Consider B1, for which the binding result in assay [1] is “binds”; in assay [2], “binds”; in assay [3] it was “no binding (tested: 50 ug/ml)”. The molecule also came in with an EC50 in assay [4] of 10.6 nM.
